Biological target: Trypanosoma brucei enolase (Trypanosoma brucei)
Test: SEC

Trypanosoma brucei enolase (enzyme) gave a stoichiometry N of 2.

From doi:10.64898/2025.12.17.694860
